Data as given in article PMC12668182 (2025).

Molecular target: N-His-ZB-CSB-Avi-Biotin (WT), full length (human, UniProt Q03468 1-1493, biotin on the C-terminal Avi tag)
Test: SPR

Chain of N-His-ZB-CSB-Avi-Biotin (WT), full length (Q03468 whole entry): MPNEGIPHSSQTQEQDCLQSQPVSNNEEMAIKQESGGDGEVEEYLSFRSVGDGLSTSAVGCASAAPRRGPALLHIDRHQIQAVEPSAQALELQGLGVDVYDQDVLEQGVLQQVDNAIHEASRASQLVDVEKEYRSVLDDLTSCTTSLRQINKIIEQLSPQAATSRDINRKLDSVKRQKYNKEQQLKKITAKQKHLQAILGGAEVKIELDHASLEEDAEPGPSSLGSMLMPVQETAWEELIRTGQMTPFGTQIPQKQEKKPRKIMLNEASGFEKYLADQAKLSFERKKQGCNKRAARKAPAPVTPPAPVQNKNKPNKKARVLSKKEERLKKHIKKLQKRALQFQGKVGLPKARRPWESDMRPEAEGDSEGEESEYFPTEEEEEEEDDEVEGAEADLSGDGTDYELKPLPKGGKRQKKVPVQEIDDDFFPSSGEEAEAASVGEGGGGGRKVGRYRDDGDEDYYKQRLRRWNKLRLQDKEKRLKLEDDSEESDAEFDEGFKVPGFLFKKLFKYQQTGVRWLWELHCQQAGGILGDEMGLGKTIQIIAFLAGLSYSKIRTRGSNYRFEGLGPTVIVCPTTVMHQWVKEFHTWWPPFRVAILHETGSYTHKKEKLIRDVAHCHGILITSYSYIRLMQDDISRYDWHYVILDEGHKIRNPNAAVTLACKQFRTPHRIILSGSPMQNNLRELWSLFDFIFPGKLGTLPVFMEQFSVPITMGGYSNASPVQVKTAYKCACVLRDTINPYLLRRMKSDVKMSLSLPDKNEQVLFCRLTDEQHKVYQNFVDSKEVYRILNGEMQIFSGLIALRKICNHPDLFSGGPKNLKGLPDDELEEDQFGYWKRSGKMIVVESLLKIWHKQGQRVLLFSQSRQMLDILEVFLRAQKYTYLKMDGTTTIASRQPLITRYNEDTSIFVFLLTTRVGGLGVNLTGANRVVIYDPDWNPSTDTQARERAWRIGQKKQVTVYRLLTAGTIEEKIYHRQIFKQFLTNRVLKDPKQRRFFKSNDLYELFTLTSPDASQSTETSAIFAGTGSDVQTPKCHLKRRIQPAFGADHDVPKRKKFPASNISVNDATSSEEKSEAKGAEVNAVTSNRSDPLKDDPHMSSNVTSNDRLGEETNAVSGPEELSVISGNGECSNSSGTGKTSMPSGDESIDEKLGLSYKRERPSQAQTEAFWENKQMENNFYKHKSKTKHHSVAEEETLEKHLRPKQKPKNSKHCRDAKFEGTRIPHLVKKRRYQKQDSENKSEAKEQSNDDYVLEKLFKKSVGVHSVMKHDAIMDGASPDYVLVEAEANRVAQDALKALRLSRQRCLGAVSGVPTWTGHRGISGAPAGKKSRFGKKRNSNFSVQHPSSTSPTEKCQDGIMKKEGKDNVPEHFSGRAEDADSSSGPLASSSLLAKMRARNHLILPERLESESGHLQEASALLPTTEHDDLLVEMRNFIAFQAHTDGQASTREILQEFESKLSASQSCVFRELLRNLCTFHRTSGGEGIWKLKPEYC

- Kd: 140 nM
B1: SNM1A (WT, a.a. 698-1040, untagged) (domain or fragment)
chain: KKTCPFYKKIPGTGFTVDAFQYGVVEGCTAYFLTHFHSDHYAGLSKHFTFPVYCSEITGNLLKNKLHVQEQYIHPLPLDTECIVNGVKVVLLDANHCPGAVMILFYLPNGTVILHTGDFRADPSMERSLLADQKVHMLYLDTTYCSPEYTFPSQQEVIRFAINTAFEAVTLNPHALVVCGTYSIGKEKVFLAIADVLGSKVGMSQEKYKTLQCLNIPEINSLITTDMCSSLVHLLPMMQINFKGLQSHLKKCGGKYNQILAFRPTGWTHSNKFTRIADVIPQTKGNISIYGIPYSEHSSYLEMKRFVQWLKPQKIIPTVNVGTWKSRSTMEKYFREWKLEAGY
